{"source": "patent US6111073A", "about": "“Tyrosine phosphorylated cleavage furrow-associated proteins (PSTPIPs)” (Genentech, Inc., priority 1998, dated 2000)", "molecules": {"B1": {"name": "GST PSTPIP: GST fusion protein containing full-length PSTPIP (amino acids 2-415) (protein)", "chain": "MAQLQFRDAFWCRDFTAHTGYEVLLQRLLDGRKMCKDVEELLRQRAQAEERYGKELVQIARKAGGQTEMNSLRTSFDSLKQQTENVGSAHIQLALALREELRSLEEFRERQKEQRKKYEAIMDRVQKSKLSLYKKTMESKKAYDQKCRDADDAEQAFERVSANGHQKQVEKSQNKAKQCKESATEAERVYRQNIEQLERARTEWEQEHRTTCEAFQLQEFDRLTILRNALWVHCNQLSMQCVKDDELYEEVRLTLEGCDVEGDINGFIQSKSTGREPPAPVPYQNYYDREVTPLIGSPSIQPSCGVIKRFSGLLHGSPKTTPSAPAASTETLTPTPERNELVYASIEVQATQGNLNSSAQDYRALYDYTAQNSDELDISAGDILAVILEGEDGWWTVERNGQRGFVPGSYLEKL"}}, "key": {"[1]": {"target": "in vitro transcribed and translated PSTPIP (murine)", "assay": "peptide competition of the pull-down of in vitro translated PSTPIP by GST-PST-rich+CTH PTP HSCF"}, "[2]": {"tested_on": "tyrosine phosphorylation of endogenous PSTPIP in Baf3 cells", "assay": "Tyrosine phosphorylation of endogenous PSTPIP in Baf3 cells (immunoprecipitation, anti-phosphotyrosine blot)", "assay_type": "cell-based, murine", "protocol": "Baf3 cells were Iysed in 1% Triton, 50 mM HEPES, 10% glycerol and 5 mM EDTA containing 1 μg/ml aprotinin, PMSF, leupeptin and pepstatin with 1 mM Sodium Vanadate and 10 mM lodoacetic acid. Cells were treated with 0.1 mM Pervanadate for 4 hours before Iysis. Immunoprecipitations were performed in the vanadate-containing Iysis buffer using 1 μg/ml anti-PSTPIP polyclonal antibody and 400 μg of Iysate protein at 4° C. overnight. Western blots were performed using 1 μg/ml affinity purified anti-PSTPIP or 1:5000 dilution of commercial 4G10 anti-phosphotyrosine monoclonal (Upstate Biotech). Signal was detected by HRPO-ECL reagents (Pierce). The C221 -S mutant was as previously described (Cheng et al., (1996) supra). The PTP HSCF D197 -A mutant was generated using PCR. Mutagenesis primer D197A.F ([…]) (SEQ ID NO:24), corresponding to nucleotide 591, and primer D197A.R ([…]) (SEQ ID NO:25) which corresponds to the stop codon, were used in PCR to generate a fragment that could be cut with Mscl and Xbal. pRK.HA.38 WT, a plasmid which encoded the wild type enzyme under the control of the cytomegalovirus promoter (Cheng et al., (1996) supra), was digested with Clal and Mscl and the resulting 600 bp fragment was ligated with the Mscl-Xbal PCR fragment into the Clal and Xbal sites of pRK.tkneo. […]"}, "[3]": {"target": "T1, interaction between PTP HSCF and PSTPIP (Mus musculus, UniProt P97814)", "T1 construct": "The longest two hybrid clone was used to isolate a full length cDNA from the original Baf3 two hybrid library; made in house; host or cells: PSTPIP: in vitro transcribed/translated (Promega TnT rabbit reticulocyte system); GST-PTP HSCF fusion: E. coli DH5-alpha, pGEX-4T-2", "T1 sequence (P97814 1-415)": "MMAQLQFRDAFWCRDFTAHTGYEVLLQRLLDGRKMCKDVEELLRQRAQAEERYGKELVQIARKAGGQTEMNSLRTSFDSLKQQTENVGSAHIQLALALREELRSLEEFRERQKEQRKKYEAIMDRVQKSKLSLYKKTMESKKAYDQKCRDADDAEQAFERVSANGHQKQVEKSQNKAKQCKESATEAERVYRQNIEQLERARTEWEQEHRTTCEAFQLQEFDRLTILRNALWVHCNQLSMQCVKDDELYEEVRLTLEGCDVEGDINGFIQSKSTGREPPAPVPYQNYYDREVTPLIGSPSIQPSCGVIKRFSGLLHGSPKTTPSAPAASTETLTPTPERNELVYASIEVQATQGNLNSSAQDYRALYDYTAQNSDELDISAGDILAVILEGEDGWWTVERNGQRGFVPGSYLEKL", "assay": "Peptide inhibition of in vitro binding: GST-PST-rich+CTH PTP HSCF precipitating in vitro translated PSTPIP", "parameters": "species or system murine", "conditions": "FIG. 4D", "protocol": "The binding was carried out according to the method of Wong and Johnson (Wong et al., J. Biol. Chem. 271(35):20981-20984 (1996)). Briefly, 1 μg of plasmid with either the PSTPIP protein or PTP HSCF under the control of the Sp6 promoter was in vitro transcribed/translated using the Promega TnT Rabbit Reticulocyte system. Samples were diluted in 50 mM HEPES, pH 7.2, 1% triton X 100, 10% glycerol, 100 mM NaCI, 5 mM EDTA and 2 μg/ml each of leupeptin, pepstatin, aprotinin, and PMSF. […] This was reacted for 1 hour at 4° C. and then the resin washed 6 times in HEPES/Triton binding buffer before SDS gel electrophoresis. The peptides were synthesized on an automated Milligen 9050 Peptide Synthesizer using standard solid phase chemistry with FMOC protected amino acids on a p-alkoxybenzyl alcohol resin. Dried peptides were re-suspended in the HEPES/Triton Binding buffer at a concentration of 10 mg/ml. Peptide inhibition was performed by adding the peptide first to the in vitro translation product and then the GST-fusion followed by the GSH-Sepharose. The binding/washing steps were as previously described. The peptides synthesized and the PTPs they were derived from were: […]"}, "[4]": {"target": "T2, in vitro transcribed and translated PSTPIP (murine)", "T2 chain": "T1 sequence (P97814 1-415)", "assay": "peptide competition of the pull-down of in vitro translated PSTPIP by GST-PST-rich+CTH PTP HSCF"}, "[5]": {"tested_on": "PTP HSCF", "assay": "In vitro binding assay: GST fusion precipitation of in vitro translated PTP HSCF", "conditions": "GST fusion protein ~1 microgram per ml or ~1.5 micromolar; compared with polyclonal anti-PTP HSCF antibody; FIG. 3", "protocol": "The binding was carried out according to the method of Wong and Johnson (Wong et al., J. Biol. Chem. 271(35):20981-20984 (1996)). Briefly, 1 μg of plasmid with either the PSTPIP protein or PTP HSCF under the control of the Sp6 promoter was in vitro transcribed/translated using the Promega TnT Rabbit Reticulocyte system. Samples were diluted in 50 mM HEPES, pH 7.2, 1% triton X 100, 10% glycerol, 100 mM NaCI, 5 mM EDTA and 2 μg/ml each of leupeptin, pepstatin, aprotinin, and PMSF. […] This was reacted for 1 hour at 4° C. and then the resin washed 6 times in HEPES/Triton binding buffer before SDS gel electrophoresis. The peptides were synthesized on an automated Milligen 9050 Peptide Synthesizer using standard solid phase chemistry with FMOC protected amino acids on a p-alkoxybenzyl alcohol resin. Dried peptides were re-suspended in the HEPES/Triton Binding buffer at a concentration of 10 mg/ml. Peptide inhibition was performed by adding the peptide first to the in vitro translation product and then the GST-fusion followed by the GSH-Sepharose. The binding/washing steps were as previously described. The peptides synthesized and the PTPs they were derived from were:\nIn order to characterize the regions involved with the binding between PTP HSCF and PSTPIP, a rapid and direct in vitro binding assay was performed. […]"}}, "data": [{"molecule": "PXXP-HSCF peptide (PTP HSCF 432-451)", "values": [{"measurement": "concentration at which the peptide blocks the interaction (as low as)", "setting": "[1]", "result": 800, "unit": "nM"}]}, {"molecule": "[O]=[V]([O-])([O-])[O-]", "note": "[vanadate]", "values": [{"measurement": "tyrosine phosphorylation of endogenous PSTPIP", "setting": "[2]; with tyrosine phosphatase inhibitor, FIG. 6", "result": "significantly enhanced"}]}, {"molecule": "PXXP-PEST peptide (PTP PEST 761-780)", "values": [{"measurement": "concentration at which the peptide blocks the interaction (as low as)", "setting": "[1]", "result": 800, "unit": "nM"}]}, {"molecule": "PXXP-PEP peptide (PTP PEP 782-800)", "values": [{"measurement": "concentration at which the peptide blocks the interaction (as low as)", "setting": "[1]", "result": 800, "unit": "nM"}]}, {"molecule": "GGVLRSISVPAPPTLPMADT [control peptide]", "values": [{"measurement": "ability to block the PTP HSCF-PSTPIP interaction", "setting": "[3]", "result": "completely unable to block the interaction"}]}, {"molecule": "pervanadate", "values": [{"measurement": "phosphotyrosine content of PSTPIP in the absence versus presence of the inhibitor", "setting": "[2]; anti-phosphotyrosine blot, FIG. 6A", "result": "lower phosphotyrosine content"}]}, {"molecule": "GGVLRSISVPAPPTLPMADT", "note": "[PXXP-CONTROL peptide (PTP HSCF 334-353)]", "values": [{"measurement": "binding result", "setting": "[4]", "result": "no binding"}]}, {"molecule": "B1", "values": [{"measurement": "efficiency of precipitating in vitro translated PTP HSCF", "setting": "[5]", "result": "more efficient at precipitating the phosphatase"}]}]}
